Data published in patent US20030021770A1.

Molecular target: mini-MUC1 polypeptide (product of the miMUC1 gene, human DF3/MUC1 with 7 variant tandem repeats) (human) (UniProt P15941)
Assay: flow cytometry, 1 ug/ml DF3 MAb on MC38/MUC1 cells, fluorescein-labeled goat anti-mouse IgG

Sequence of UniProt P15941 (P15941 other isoform, or with tags, fused parts or gaps mutant, form in doubt): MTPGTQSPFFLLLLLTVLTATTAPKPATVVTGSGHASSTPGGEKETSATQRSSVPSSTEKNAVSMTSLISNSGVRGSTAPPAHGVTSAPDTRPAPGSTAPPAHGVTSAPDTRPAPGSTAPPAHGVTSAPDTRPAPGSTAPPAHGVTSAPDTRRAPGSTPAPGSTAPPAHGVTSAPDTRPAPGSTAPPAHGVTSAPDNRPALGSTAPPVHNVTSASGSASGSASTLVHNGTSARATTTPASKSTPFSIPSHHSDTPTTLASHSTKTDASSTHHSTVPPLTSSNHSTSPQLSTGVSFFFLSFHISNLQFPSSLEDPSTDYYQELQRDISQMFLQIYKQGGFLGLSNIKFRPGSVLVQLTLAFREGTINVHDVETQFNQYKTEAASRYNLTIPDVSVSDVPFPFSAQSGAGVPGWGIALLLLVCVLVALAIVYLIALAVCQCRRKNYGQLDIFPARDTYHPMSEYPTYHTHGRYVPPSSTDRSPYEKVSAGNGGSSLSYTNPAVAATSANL

DF3 monoclonal antibody (anti-MUC1)
mean fluorescence: 400
percent of cells positive: 87.5%
